B1: Phorbol-12-myristate-13-acetate-induced protein 1 (Homo sapiens), Q13794 (parent)
chain: MPGKKARKNAQPSPARAPAELEVECATQLRRFGDKLNFRQKLLNLISKLFCSGT
B2: Bcl-2 homologous antagonist/killer (Homo sapiens), Q16611 (parent)
chain: MASGQGPGPPRQECGEPALPSASEEQVAQDTEEVFRSYVFYRHQQEQEAEGVAAPADPEMVTLPLQPSSTMGQVGRQLAIIGDDINRRYDSEFQTMLQHLQPTAENAYEYFTKIATSLFESGINWGRVVALLGFGYRLALHVYQHGLTGFLGQVTRFVVDFMLHHCIARWIAQRGGWVAALNLGNGPILNVLVVLGVVLLGQFVVRRFFKS

Variants of: B1
Conditions: with mcl1_human MCL1, Q07820
Target sequence in this assay (Q07820 whole entry): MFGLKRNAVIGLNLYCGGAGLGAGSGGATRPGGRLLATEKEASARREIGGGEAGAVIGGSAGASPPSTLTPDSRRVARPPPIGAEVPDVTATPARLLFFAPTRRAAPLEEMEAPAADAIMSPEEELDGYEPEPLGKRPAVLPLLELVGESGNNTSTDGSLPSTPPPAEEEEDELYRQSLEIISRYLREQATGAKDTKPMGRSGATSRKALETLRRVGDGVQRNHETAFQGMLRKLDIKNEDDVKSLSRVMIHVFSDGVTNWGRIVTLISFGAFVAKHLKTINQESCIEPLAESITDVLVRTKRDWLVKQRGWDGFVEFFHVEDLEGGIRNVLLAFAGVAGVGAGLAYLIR

Variant	effect of a mutation on the interaction
MPGKKARKNAQPSPARAPAELEVECATQLRRFGDKENFRQKLLNLISKLFCSGT	decreasing interaction
MPGKKARKNAQPSPARAPAELEVECATQLRREGDKLNFRQKLLNLISKLFCSGT	decreasing interaction
MPGKKARKNAQPSPARAPAELEVECATQERRFGDKLNFRQKLLNLISKLFCSGT	decreasing interaction

Variants of: B2
Conditions: with mcl1_mouse Mcl1, P97287
mcl1_mouse Mcl1, P97287, sequence (P97287 whole entry): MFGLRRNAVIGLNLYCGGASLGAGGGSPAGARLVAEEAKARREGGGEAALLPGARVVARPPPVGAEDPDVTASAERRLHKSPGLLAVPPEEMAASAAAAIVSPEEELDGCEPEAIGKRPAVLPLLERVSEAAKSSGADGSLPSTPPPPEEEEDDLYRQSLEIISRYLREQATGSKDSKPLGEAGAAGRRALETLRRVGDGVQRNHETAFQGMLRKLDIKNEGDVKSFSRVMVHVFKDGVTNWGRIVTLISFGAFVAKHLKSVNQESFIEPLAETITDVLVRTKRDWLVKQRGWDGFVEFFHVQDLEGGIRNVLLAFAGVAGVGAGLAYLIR

Variant	effect of a mutation on the interaction
MASGQGPGPPRQECGEPALPSASEEQVAQDTEEVFRSYVFYRHQQEQEAEGVAAPADPEMVTLPLQPSSTMGQVGRQAAIIGDDINRRYDSEFQTMLQHLQPTAENAYEYFTKIATSLFESGINWGRVVALLGFGYRLALHVYQHGLTGFLGQVTRFVVDFMLHHCIARWIAQRGGWVAALNLGNGPILNVLVVLGVVLLGQFVVRRFFKS [L78A]	decreasing interaction

Variants of: B2
Conditions: with mcl1_human MCL1, Q07820
Target sequence in this assay (Q07820 whole entry): as the sequence (Q07820 whole entry) above

Variant	effect of a mutation on the interaction
MASGQGPGPPRQECGEPALPSASEEQVAQDTEEVFRSYVFYRHQQEQEAEGVAAPADPEMVTLPLQPSSTMGQVGRQAAIIGDDINRRYDSEFQTMLQHLQPTAENAYEYFTKIATSLFESGINWGRVVALLGFGYRLALHVYQHGLTGFLGQVTRFVVDFMLHHCIARWIAQRGGWVAALNLGNGPILNVLVVLGVVLLGQFVVRRFFKS [L78A]	decreasing interaction

Variants of: B2
Conditions: with bax_human BAX

Variant	effect of a mutation on the interaction
MASGQGPGPPRQECGEPALPSASEEQVAQDTEEVFRSYVFYRHQQEQEAEGVAAPADPEMVTLPLQPSSTMGQVGRQAAIIGDDINRRYDSEFQTMLQHLQPTAENAYEYFTKIATSLFESGINWGRVVALLGFGYRLALHVYQHGLTGFLGQVTRFVVDFMLHHCIARWIAQRGGWVAALNLGNGPILNVLVVLGVVLLGQFVVRRFFKS [L78A]	decreasing interaction

From IntAct's records for PubMed 15901672
